{"source": "ChEMBL document CHEMBL3576833", "about": "“Design and Synthesis of Acetylenyl Benzamide Derivatives as Novel Glucokinase Activators for the Treatment of T2DM” (ACS Med Chem Lett, 2015)", "proteins": {"B1": {"name": "Hexokinase-4 (Homo sapiens), P35557 (protein)", "chain": "MLDDRARMEAAKKEKVEQILAEFQLQEEDLKKVMRRMQKEMDRGLRLETHEEASVKMLPTYVRSTPEGSEVGDFLSLDLGGTNFRVMLVKVGEGEEGQWSVKTKHQMYSIPEDAMTGTAEMLFDYISECISDFLDKHQMKHKKLPLGFTFSFPVRHEDIDKGILLNWTKGFKASGAEGNNVVGLLRDAIKRRGDFEMDVVAMVNDTVATMISCYYEDHQCEVGMIVGTGCNACYMEEMQNVELVEGDEGRMCVNTEWGAFGDSGELDEFLLEYDRLVDESSANPGQQLYEKLIGGKYMGELVRLVLLRLVDENLLFHGEASEQLRTRGAFETRFVSQVESDTGDRKQIYNILSTLGLRPSTTDCDIVRRACESVSTRAAHMCSAGLAGVINRMRESRSEDVMRITVGVDGSVYKLHPSFKERFHASVRRLTPSCEITFIESEEGSGRGAALVSAVACKKACMLGQ"}}, "compound": "COC[C@H](C)Oc1cc(C#Cc2cccc(N)c2)cc(C(=O)Nc2ccn(C)n2)c1", "assay": "Activation of recombinant human pancreatic glucokinase using 10 mM glucose as substrate assessed as enzyme Vmax by G6PDH coupled assay"}
{"protein": "B1", "values": [{"measurement": "Vmax", "value": 126, "unit": "%"}]}
